This note sets out measurements from patent publication US20170037440A1 (MEDIZINISCHE HOCHSCHULE HANNOVER, published 2017).

This data set concerns the molecule itself. Put plainly: analytical size exclusion chromatography, self-association. Background: In gel filtration, larger molecules generally elute earlier.

B1: Δ69-CsaBco-His6 (enzyme)
chain: MLIPINFFNFEYIVKKLNNQNAIGVYILPSNLTLKPALCILESHKEDFLNKFLLTISSENLKLQYKFNGQIKNPKSVNEIWTDLFSIAHVDMKLSTDRTLSSSISQFWFRLEFCKEDKDFILFPTANRYSRKLWKHSIKNNQLFKEGIRNYSEISSLPYEEDHNFDIDLVFTWVNSEDKNWQELYKKYKPDFNSDATSTSRFLSRDELKFALRSWEMNGSFIRKIFIVSNCAPPAWLDLNNPKIQWVYHEEIMPQSALPTFSSHAIETSLHHIPGISNYFIYSNDDFLLTKPLNKDNFFYSNGIAKLRLEAWGNVNGECTEGEPDYLNGARNANTLLEKEFKKFTTKLHTHSPQSMRTDILFEMEKKYPEEFNRTLHNKFRSLDDIAVTGYLYHHYALLSGRALQSSDKTELVQQNHDFKKKLNNVVTLTKERNFDKLPLSVCINDGADSHLNEEWNVQVIKFLETLFPLPSSFEKLEHHHHHH
notes: also called ΔN69-CsaB; dN69-CsaB
With B1, the binding result is reported as “binds”.
